The values below come from article PMC6224509 (2018).

Holding throughout (assay): SPR; 37°C
In general terms: In SPR one partner is held on a chip, and binding of the other changes the refractive index at the surface.

The target in experiment [1] is human 4-1BB residues 24–186, wild type, His–Avi (human, UniProt Q07011 24-186).
For experiment [2], the target named is human 4-1BB residues 24–186 I132R, His–Avi (human, UniProt Q07011 24-186, I132R).
For experiment [3], the target named is human 4-1BB residues 24–186 M101R, His–Avi (human, UniProt Q07011 24-186, M101R).
human 4-1BB residues 24–186 M101R, His–Avi, sequence (Q07011 24-186 M101R): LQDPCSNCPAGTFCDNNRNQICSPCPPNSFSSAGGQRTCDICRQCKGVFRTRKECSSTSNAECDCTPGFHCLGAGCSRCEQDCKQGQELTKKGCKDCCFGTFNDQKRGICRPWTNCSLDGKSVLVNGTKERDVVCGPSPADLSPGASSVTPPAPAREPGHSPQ

human 4-1BB residues 24–186, wild type, His–Avi, sequence (Q07011 24-186): as the sequence (Q07011 24-186 M101R) above, with R78M counted along it
human 4-1BB residues 24–186 I132R, His–Avi, sequence (Q07011 24-186 I132R): as the sequence (Q07011 24-186 M101R) above, with R78M, I109R counted along it

B1: urelumab (fully human IgG4 mAb) (antibody, V domains shown)
VH: QVQLQQWGAGLLKPSETLSLTCAVYGGSFSGYYWSWIRQSPEKGLEWIGEINHGGYVTYNPSLESRVTISVDTSKNQFSLKLSSVTAADTAVYYCARDYGPGNYDWYFDLWGRGTLVTVSS
VL: EIVLTQSPATLSLSPGERATLSCRASQSVSSYLAWYQQKPGQAPRLLIYDASNRATGIPARFSGSGSGTDFTLTISSLEPEDFAVYYCQQRSNWPPALTFGGGTKVEIK
As usually defined, the koff is the first-order rate constant of dissociation. A higher koff goes with a short-lived complex. On to B1, for which the values for the koff in experiment [1], in experiment [2] and in experiment [3] were 0.014 s⁻¹, 0.012 s⁻¹ and 0.0095 s⁻¹, respectively.
